From US20170260282A1 (Janssen / Centocor, published 2017)

Legend:
[1] = target: T1, Human GITR (cell surface) (human, UniProt Q9Y5U5 26-241); assay: cell-based or functional assay
T1 sequence: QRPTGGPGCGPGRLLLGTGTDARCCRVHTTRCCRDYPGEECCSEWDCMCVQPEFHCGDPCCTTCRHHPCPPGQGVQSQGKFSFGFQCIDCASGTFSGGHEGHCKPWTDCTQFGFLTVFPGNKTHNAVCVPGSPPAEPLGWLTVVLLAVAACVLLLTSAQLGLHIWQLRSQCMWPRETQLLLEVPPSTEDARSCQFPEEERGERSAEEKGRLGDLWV

[2] = target: T2, Cyno GITR (cell surface) (cynomolgus monkey); assay: cell-based or functional assay
T2 chain: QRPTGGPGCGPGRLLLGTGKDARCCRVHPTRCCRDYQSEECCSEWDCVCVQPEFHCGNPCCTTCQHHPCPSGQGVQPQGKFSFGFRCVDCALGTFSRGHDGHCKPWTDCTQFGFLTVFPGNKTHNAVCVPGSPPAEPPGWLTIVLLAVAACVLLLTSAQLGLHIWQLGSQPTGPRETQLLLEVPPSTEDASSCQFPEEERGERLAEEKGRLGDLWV

[3] = target: T2, Cyno GITR (cell surface); assay: MSD-CAT, cyno against human GITR, study 1
Description: (§1) The MSD-CAT was developed in-house as a label-free method to determine affinity using intact cells in a high throughput format. The parental HEK293 cell line without any GITR expressed was used as a negative control.
(§2) These samples were prepared in DMEM Glutamax medium (Invitrogen, Prod #10569-044) with 0.05% Azide, 1% BSA, 3 mM EDTA. After equilibration the plates were centrifuged for 5 min at 2000 rpm and free anti-GITR mAbs are detected in the supernatant. The free anti-GITR mAbs in the mixture were detected by electrochemiluminescence (ECL) using MSD reader instrument. For detection, MSD-Streptavidin plates (MesoScale Discovery, Prod #L11SA-1) were coated with 0.1 μg/mL of biotinylated human-GITR antigen in assay buffer at 50 μL/well and equilibrated overnight (˜16 hr at 4° C.). […] After 1 hr, the plates were washed three times with wash buffer and 150 μL of MSD Read Buffer (MesoScale Discovery Cat #R92TC-1; prepared by diluting 1:3 of stock into d. H2O) were added per well. The plates were read immediately on the MSD Sector Imager 6000 Reader for luminescence levels. ECL signal detected by MSD was expressed in term of % free antibody in the mixture and the data was analyzed to determine affinity using a user defined equation (derived from the law of mass action) introduced in Prism software.

[4] = target: T1, Human GITR (cell surface); assay: MSD-CAT, GITR-expressing HEK293 cells, study 1
Description: as §1, §2

[5] = target: T2, Cyno GITR (cell surface); assay: MSD-CAT, GITR-expressing HEK293 cells, study 1
Description: as §1, §2

[6] = target: T3, recombinant human GITR ECD (human, UniProt Q9Y5U5 26-161); assay: SPR (ProteOn XPR36), mAb captured by anti-human Fc, GITR ECD as analyte, 25 °C
T3 construct: also called human GITR extracellular domain
T3 sequence: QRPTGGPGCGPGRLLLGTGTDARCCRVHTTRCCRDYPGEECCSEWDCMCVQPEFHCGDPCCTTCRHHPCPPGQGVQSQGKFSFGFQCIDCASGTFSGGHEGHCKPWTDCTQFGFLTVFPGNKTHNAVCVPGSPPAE
Description: (§3) The affinities of the GITR antibodies to recombinant human GITR ECD were measured by Surface Plasmon Resonance (SPR) using a ProteOn XPR36 protein interaction array system (BioRad).
(§4) The rates of GITR ECD association and dissociation were measured for each variant. The biosensor surface was prepared by covalently coupling Goat anti-Human IgG (Fc) to the surface of a GLC chip (BioRad) using the manufacturer instructions for amine-coupling chemistry. Approximately 8800 RU (response units) of Goat anti-Human IgG (Fc) antibody (Jackson ImmunoResearch laboratories Prod #109-005-098) were immobilized. […] Since the mixture was 1:1 about 50% of these RU immobilized are expected to be goat anti-human Fc. The binding kinetics experiments were performed at 25° C. in running buffer (PBS pH 7.4, 0.005% P20, 3 mM EDTA). […] (1:3) serial dilutions of human GITR ECD or cyno GITR ECD starting at 100 nM were prepared in running buffer. […] The reference spots (Goat anti-Human IgG (Fc)-modified surface) containing no candidate captured were used as a reference surface. Capture of mAb was followed by 3 min injection (association phase) of antigen at 40 μL/min, followed by 10 min of buffer flow (dissociation phase). The chip surface was regenerated by injection of 0.85% phosphoric acid at 100 μL/min. Data were processed on the instrument software. Double reference subtraction of the data was performed by subtracting the curves generated by buffer injection from the reference-subtracted curves for analyte injections. Kinetic analysis of the data was performed using 1:1 Langmuir binding model with group fit. The result for each mAb was reported in the format of kon or on-rate, koff or off-rate, and KD (Equilibrium dissociation constant) (Table 7).

[7] = target: T4, cyno GITR ECD (cynomolgus monkey); assay: as above
T4 construct: Only the extracellular domain stood in the SPR assay
T4 chain: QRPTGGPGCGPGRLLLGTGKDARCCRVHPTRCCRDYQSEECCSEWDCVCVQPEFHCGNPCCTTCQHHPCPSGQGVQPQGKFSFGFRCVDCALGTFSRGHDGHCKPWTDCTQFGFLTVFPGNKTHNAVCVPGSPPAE
Description: as §3, §4

B1: TRGB153 (antibody, human IgG1, kappa, V domains shown)
VH: QVQLVQSGAEVKKPGSSVKVSCKASGGTFSSYAISWVRQAPGQGLEWMGGIIPIFGTANYAQKFQGRVTITADESTSTAYMELSSLRSEDTAVYYCARHAWLGHLDYWGQGTLVTVSS
VL: EIVLTQSPATLSLSPGERATLSCRASQSVSSYLAWYQQKPGQAPRLLIYDASNRATGIPARFSGSGSGTDFTLTISSLEPEDFAVYYCQQRSNWPLTFGQGTKVEIKR
notes: human IgG1/kappa
[1]
  ADCC EC50, HEK293-hGITR target cells, NK-92 FcγRIIIa 176V/V effector cells: 1.9 ng/mL
[2]
  ADCC EC50, HEK293-cyno GITR target cells, NK-92 FcγRIIIa 176V/V effector cells: 2.5 ng/mL
[3]
  KD Fold Difference (Cy/Hu): 11.4 fold
[4]
  Kd: ~0.01 nM
[5]
  Kd: 0.115 nM
[6]
  Kd: 0.0202 nM
  koff: 2.02e-05 s⁻¹
  kon: 996000 M⁻¹ s⁻¹
[7]
  Kd: 8.6 nM
  koff: 0.00257 s⁻¹
  kon: 299000 M⁻¹ s⁻¹
